T1: HPV E7 peptide on HLA-A*11:01 (human)
T1 peptide: IVCPICSQK

B1: TCR074 (TCR, V domains shown)
Valpha: AQKITQTQPGMFVQEKEAVTLDCTYDTSDPSYGLFWYKQPSSGEMIFLIYQGSYDQQNATEGRYSLNFQKARKSANLVISASQLGDSAMYFCAMRIDAGGTSYGKLTFGQGTILTVHP
Vbeta: DAMVIQNPRYQVTQFGKPVTLSCSQTLNHNVMYWYQQKSSQAPKLLFHYYDKDFNNEADTPDNFQSRRPNTSFCFLDIRSPGLGDAAMYLCATSRDRVNTGELFFGEGSRLTVL
B2: TCR095 (TCR, V domains shown)
Valpha: GIQVEQSPPDLILQEGANSTLRCNFSDSVNNLQWFHQNPWGQLINLFYIPSGTKQNGRLSATTVATERYSLLYISSSQTTDSGVYFCAVEGDNAGGTSYGKLTFGQGTILTVHP
Vbeta: EAQVTQNPRYLITVTGKKLTVTCSQNMNHEYMSWYRQDPGLGLRQIYYSMNVEVTDKGDVPEGYKVSRKEKRNFPLILESPSPNQTSLYFCASSWSTSYGYTFGSGTRLTIV
B3: TCR123 (TCR, V domains shown)
Valpha: SQKIEQNSEALNIQEGKTATLTCNYTNYSPAYLQWYRQDPGRGPVFLLLIRENEKEKRKERLKVTFDTTLKQSLFHITASQPADSATYLCALAGYQKVTFGTGTKLQVIP
Vbeta: SQTIHQWPATLVQPVGSPLSLECTVEGTSNPNLYWYRQAAGRGLQLLFYSVGIGQISSEVPQNLSASRPQDRQFILSSKKLLLSDSGFYLCAWSLRTSGSEQFFGPGTRLTVL

Biological target: T1, HPV E7 peptide on HLA-A*11:01
Assay: multimer staining

| Binder | binding result |
| --- | --- |
| B1 | recognises |
| B2 | recognises |
| B3 | recognises |
